# Assay results from the supplement of paper PMC10724198.
# ± gives the standard deviation of the averaged measurements.
# Test system: Saccharomyces cerevisiae
# Test: protein stability index of tFT-peptide fusion (C-terminal peptide) (PSI (0-1 scale)); higher = more stable (slower turnover)
# Settings: genetic background: wild type; temperature: 30 C
# Experimental: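 Multiplexed protein stability (MPS) profiling in S. cerevisiae. Random 12-aa peptides (tFT-X12 library) are fused to the C-terminus of a sfGFP-mCherry tandem fluorescent timer, after mCherry and a GGGS linker. Cells are FACS-sorted into 8 mCherry/sfGFP bins and deep-sequenced. The protein stability index (PSI) is the read-weighted bin average, scaled from 0 (unstable) to 1 (stable). Only peptides with >10 reads are reported; cells were grown at 30 °C in SC-His with glucose.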
# 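Note: PSI is a weighted mean of sequencing reads over stability bins, variants kept only with over 10 reads, mCherry proximal and sfGFP distal, peptide attached via GGGS linker.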
row,Sequence,protein stability index
1,VGPDGFWGVVLG,0.719 ± 0.023
2,HGHLGKFLGARE,0.689 ± 0.022
3,LGSFLPLLPSPP,0.674 ± 0.041
4,HLFYASCNSSAS,0.67112 ± 0.00053
5,AAHRRRRSPPRP,0.5909 ± 0.0014
6,ALRVGTGTVRFE,0.712 ± 0.051
7,QTVKNYTSQSKR,0.666 ± 0.018
8,STRFVRNEFGVS,0.665 ± 0.035
9,FARPQCLPVPLP,0.6555 ± 0.001
10,PHSSSLSPCPSL,0.687 ± 0.013
11,MCNPAYVTSGVI,0.6987 ± 0.0054
12,RCGGGKWWRGAE,0.6566 ± 0.0035
13,WPFHADPPPPVP,0.6969 ± 0.0026
14,GNPDFQVTKNPY,0.67 ± 0.078
15,LAEGFSLIRSHR,0.685 ± 0.019
16,GACILARGVRRR,0.656 ± 0.014
17,STEFCRIIYRGP,0.681 ± 0.023
18,LLRVPPGPIFPS,0.661 ± 0.064
19,GLDEAYVSRNIN,0.647 ± 0.011
20,GSGRGGWRRGER,0.707 ± 0.042
21,DPWGGTGKGHWG,0.679 ± 0.0056
22,SWGGGGGGAGRG,0.653 ± 0.017
23,TTVRTVSLIDRI,0.689 ± 0.059
24,KKRILNRKKEER,0.705 ± 0.052
25,GKMQIRRFISRS,0.67 ± 0.0088

row,Sequence,protein stability index
1,TRFFFLLCRRSL,0.57 ± 0.082
2,PPPSPPLPPFSL,0.7056 ± 0.00078
3,GEALVWGHGRLS,0.741 ± 0.041
4,LASYSSCYIRDF,0.751 ± 0.017
5,GIVGLFSALSLL,0.706 ± 0.1
6,GGSGGRDGLCVG,0.738 ± 0.049
7,NKNNITKKRKKD,0.749 ± 0.064
8,PIPRAASPLLPM,0.588 ± 0.007
9,SLPFFPPRSPPS,0.725 ± 0.11
10,HLCLACYRSVDM,0.688 ± 0.011
11,TARDLEGTRAKG,0.638 ± 0.028
12,SPTPPPTSPSRP,0.728 ± 0.11
13,RNFWIYTHTRCR,0.668 ± 0.049
14,VSWVWMGRLGYC,0.657 ± 0.02
15,MSWLGLGLWSVF,0.808 ± 0.069
16,ETKKKTNKRAEK,0.689 ± 0.053
17,AGVGVSSSLLPL,0.664 ± 0.025
18,ASGGIIRWGLWM,0.694 ± 0.029
19,SCHPDPTRKSPN,0.7159 ± 0.0035
20,SAQPELPNIAPA,0.636 ± 0.049
21,SRSGLSPTLPVF,0.699 ± 0.016
22,VVWSWCWEYAAV,0.625 ± 0.013
23,GWLAERGPLEGG,0.728 ± 0.016
24,ESKATIRTRARN,0.74 ± 0.028
25,PACFESCGLWGF,0.75 ± 0.039

row,Sequence,protein stability index
1,LYTTLCLRSPPH,0.671 ± 0.026
2,GGGRGRAGENTR,0.681 ± 0.049
3,SLSLVSLSPSFS,0.694 ± 0.0096
4,SRHPPPPVSPHP,0.727 ± 0.064
5,FDCMVRVRTTVV,0.544 ± 0.027
6,SFPLPSPSPLLP,0.712 ± 0.05
7,RAGSLTSGVCGP,0.663 ± 0.015
8,FCPVGVFCGIFG,0.644 ± 0.029
9,EGKWCGVKRGVY,0.627 ± 0.033
10,GGGAGRGGVVVR,0.685 ± 0.023
11,GAHVAVFRQRGR,0.678 ± 0.083
12,FLIRSSQSFELE,0.715 ± 0.035
13,NKKKKKKRNGAP,0.658 ± 0.028
14,IQFKDKAVSETE,0.658 ± 0.021
15,LISISNINEGVI,0.688 ± 0.037
16,GVVCWRFLLADV,0.596 ± 0.028
17,GNFAGLTRDRGP,0.674 ± 0.052
18,LCQCAFLSFSCF,0.61642 ± 1.1e-05
19,RWPQNRGRVSKP,0.747 ± 0.017
20,TWAVTGDLLITR,0.815 ± 0.15
21,GGRGWGGEMGGR,0.7156 ± 0.0052
22,PSVVPSLSPLFL,0.796 ± 0.062
23,PPSPAPLHPSTS,0.661 ± 0.047
24,PLIDRKIKKAIQ,0.705 ± 0.069
25,PWTAGQGWATIP,0.688 ± 0.04

row,Sequence,protein stability index
1,RSCVGGISVLVL,0.466 ± 0.085
2,KNNKSERIEKEQ,0.701 ± 0.08
3,GWRGGGSRELKW,0.743 ± 0.031
4,GSQRAHRQAAHD,0.683 ± 0.077
5,ALCLDGCSLGEF,0.704 ± 0.017
6,LFPPPPPSPRCL,0.637 ± 0.055
7,PPPRPAPPSSHS,0.641 ± 0.044
8,FHRHILCSDPRL,0.709 ± 0.022
9,GGCVGVLGGWGF,0.6827 ± 0.0032
10,GGGGGGWSGACL,0.716 ± 0.08
11,SGHSRCSPALPV,0.7123 ± 0.002
12,AAPRPYRPCYPN,0.664 ± 0.029
13,CSVGLPPLPPLH,0.704 ± 0.076
14,GLLEGGLWVWGL,0.692 ± 0.04
15,WDSGRWSCLRGW,0.698 ± 0.044
16,TSPPPPSRPPSH,0.691 ± 0.029
17,GYCGRGCWGVGC,0.7093 ± 0.0056
18,QSTRPHSHGCLG,0.748 ± 0.051
19,ISKEIKKRLNRY,0.63 ± 0.055
20,AFDKDLLGMMFS,0.692 ± 0.024
21,VSLGHGYVFRRV,0.6921 ± 0.0058
22,LCLRRLSCVGFG,0.568 ± 0.022
23,PPPLLSAPPHCE,0.684 ± 0.052
